Measured values from the supplement of paper PMC9112550, “Optimization of the antimicrobial peptide Bac7 by deep mutational scanning” (BMC Biology, 2022).

Tested on: Escherichia coli TOP10
Test: shrunken log2 fold change of peptide-encoding DNA abundance (4.5 h post-induction vs induction); higher = less antimicrobial activity (less host growth inhibition)
Settings: time post-induction: 4.5 h; library: site-saturation at positions 5, 18, 19, 20
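Note: peptides expressed intracellularly from a pBAD plasmid library in pooled LB shake-flask culture, induced with 0.3% L-arabinose, DNA abundance read by NGS, three biological replicates, DESeq2 with apeglm shrinkage.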

Row | Sequence | shrunken log2 fold change
1 | RRIRERPPRLPRPRPRPCKWPRP | 0.0276
2 | RRIRERPPRLPRPRPRPCLPPRP | -0.259
3 | RRIRERPPRLPRPRPRPCMAPRP | -0.336
4 | RRIRERPPRLPRPRPRPCMPPRP | 0.0888
5 | RRIRERPPRLPRPRPRPCMVPRP | -1.08
6 | RRIRERPPRLPRPRPRPCNWPRP | -0.0685
7 | RRIRERPPRLPRPRPRPCPSPRP | -0.115
8 | RRIRERPPRLPRPRPRPCRNPRP | -0.269
9 | RRIRERPPRLPRPRPRPCRWPRP | -0.205
10 | RRIRERPPRLPRPRPRPCTAPRP | -0.337
11 | RRIRERPPRLPRPRPRPCTEPRP | -0.196
12 | RRIRERPPRLPRPRPRPCTFPRP | -0.129
13 | RRIRERPPRLPRPRPRPCVYPRP | -0.33
14 | RRIRERPPRLPRPRPRPCWIPRP | -0.594
15 | RRIRERPPRLPRPRPRPCYLPRP | -1.07
16 | RRIRERPPRLPRPRPRPDAMPRP | -0.0916
17 | RRIRERPPRLPRPRPRPDCAPRP | 0.115
18 | RRIRERPPRLPRPRPRPDFCPRP | -0.196
19 | RRIRERPPRLPRPRPRPDFSPRP | 0.0617
20 | RRIRERPPRLPRPRPRPDGMPRP | -0.0237
21 | RRIRERPPRLPRPRPRPDHMPRP | -0.0199
22 | RRIRERPPRLPRPRPRPDIFPRP | 0.0405
23 | RRIRERPPRLPRPRPRPDIKPRP | -0.248
24 | RRIRERPPRLPRPRPRPDITPRP | 3.39
25 | RRIRERPPRLPRPRPRPDKRPRP | -0.023

Row | Sequence | shrunken log2 fold change
26 | RRIRERPPRLPRPRPRPDLWPRP | -0.141
27 | RRIRERPPRLPRPRPRPDNNPRP | -0.237
28 | RRIRERPPRLPRPRPRPDNPPRP | -0.0894
29 | RRIRERPPRLPRPRPRPDNRPRP | -0.0217
30 | RRIRERPPRLPRPRPRPDNVPRP | 0.0262
31 | RRIRERPPRLPRPRPRPDPQPRP | -0.102
32 | RRIRERPPRLPRPRPRPDRFPRP | -0.01
33 | RRIRERPPRLPRPRPRPDRWPRP | -0.0318
34 | RRIRERPPRLPRPRPRPDSSPRP | -0.509
35 | RRIRERPPRLPRPRPRPDSYPRP | -0.00865
36 | RRIRERPPRLPRPRPRPDTFPRP | -0.00141
37 | RRIRERPPRLPRPRPRPDTMPRP | -0.336
38 | RRIRERPPRLPRPRPRPDVYPRP | -0.301
39 | RRIRERPPRLPRPRPRPEAWPRP | 0.0366
40 | RRIRERPPRLPRPRPRPECCPRP | 0.066
41 | RRIRERPPRLPRPRPRPECSPRP | -0.0948
42 | RRIRERPPRLPRPRPRPEEKPRP | -0.0137
43 | RRIRERPPRLPRPRPRPEFAPRP | 0.0144
44 | RRIRERPPRLPRPRPRPEIYPRP | 0.0872
45 | RRIRERPPRLPRPRPRPEKIPRP | 0.0141
46 | RRIRERPPRLPRPRPRPEMHPRP | 0.0332
47 | RRIRERPPRLPRPRPRPEMIPRP | -0.0286
48 | RRIRERPPRLPRPRPRPEMTPRP | -0.0236
49 | RRIRERPPRLPRPRPRPESGPRP | -0.0112
50 | RRIRERPPRLPRPRPRPESQPRP | -0.101

Row | Sequence | shrunken log2 fold change
51 | RRIRERPPRLPRPRPRPESYPRP | 0.0161
52 | RRIRERPPRLPRPRPRPETCPRP | -0.127
53 | RRIRERPPRLPRPRPRPETKPRP | -0.231
54 | RRIRERPPRLPRPRPRPEVTPRP | -0.0794
55 | RRIRERPPRLPRPRPRPEWPPRP | 0.102
56 | RRIRERPPRLPRPRPRPEYQPRP | 0.00497
57 | RRIRERPPRLPRPRPRPFCAPRP | 0.548
58 | RRIRERPPRLPRPRPRPFEFPRP | -0.629
59 | RRIRERPPRLPRPRPRPFERPRP | 0.00782
60 | RRIRERPPRLPRPRPRPFESPRP | 0.00731
61 | RRIRERPPRLPRPRPRPFFVPRP | -0.292
62 | RRIRERPPRLPRPRPRPFIPPRP | -0.481
63 | RRIRERPPRLPRPRPRPFIVPRP | -0.218
64 | RRIRERPPRLPRPRPRPFLFPRP | -0.286
65 | RRIRERPPRLPRPRPRPFMCPRP | -0.158
66 | RRIRERPPRLPRPRPRPFMRPRP | 0.154
67 | RRIRERPPRLPRPRPRPFNEPRP | -0.226
68 | RRIRERPPRLPRPRPRPFPDPRP | -0.00133
69 | RRIRERPPRLPRPRPRPFSMPRP | -0.366
70 | RRIRERPPRLPRPRPRPFTKPRP | -0.0421
71 | RRIRERPPRLPRPRPRPFTQPRP | -0.299
72 | RRIRERPPRLPRPRPRPFTTPRP | -0.381
73 | RRIRERPPRLPRPRPRPFVHPRP | -0.435
74 | RRIRERPPRLPRPRPRPFVNPRP | -0.561
75 | RRIRERPPRLPRPRPRPFWVPRP | 0.0389

Row | Sequence | shrunken log2 fold change
76 | RRIRERPPRLPRPRPRPGAVPRP | 1.45
77 | RRIRERPPRLPRPRPRPGCAPRP | 0.335
78 | RRIRERPPRLPRPRPRPGCNPRP | -0.0442
79 | RRIRERPPRLPRPRPRPGCTPRP | -0.169
80 | RRIRERPPRLPRPRPRPGFGPRP | 0.0959
81 | RRIRERPPRLPRPRPRPGGWPRP | 0.492
82 | RRIRERPPRLPRPRPRPGHFPRP | 0.0631
83 | RRIRERPPRLPRPRPRPGIMPRP | -0.738
84 | RRIRERPPRLPRPRPRPGINPRP | -0.249
85 | RRIRERPPRLPRPRPRPGKCPRP | -0.205
86 | RRIRERPPRLPRPRPRPGKGPRP | 0.208
87 | RRIRERPPRLPRPRPRPGKKPRP | -0.0022
88 | RRIRERPPRLPRPRPRPGKPPRP | 0.231
89 | RRIRERPPRLPRPRPRPGLAPRP | 0.178
90 | RRIRERPPRLPRPRPRPGLMPRP | -0.0269
91 | RRIRERPPRLPRPRPRPGLPPRP | -0.112
92 | RRIRERPPRLPRPRPRPGMKPRP | 0.0657
93 | RRIRERPPRLPRPRPRPGNWPRP | -0.0108
94 | RRIRERPPRLPRPRPRPGQSPRP | 0.0977
95 | RRIRERPPRLPRPRPRPGSAPRP | 0.151
96 | RRIRERPPRLPRPRPRPGSDPRP | -0.369
97 | RRIRERPPRLPRPRPRPGSEPRP | -0.0924
98 | RRIRERPPRLPRPRPRPGTKPRP | -0.0636
99 | RRIRERPPRLPRPRPRPGWCPRP | 0.00111
100 | RRIRERPPRLPRPRPRPGYPPRP | -0.216

Row | Sequence | shrunken log2 fold change
101 | RRIRERPPRLPRPRPRPHCGPRP | -0.333
102 | RRIRERPPRLPRPRPRPHCYPRP | -0.291
103 | RRIRERPPRLPRPRPRPHDKPRP | -0.784
104 | RRIRERPPRLPRPRPRPHEFPRP | -0.0591
105 | RRIRERPPRLPRPRPRPHEHPRP | -0.205
106 | RRIRERPPRLPRPRPRPHFLPRP | -0.458
107 | RRIRERPPRLPRPRPRPHFRPRP | -0.624
108 | RRIRERPPRLPRPRPRPHFSPRP | 0.061
109 | RRIRERPPRLPRPRPRPHGQPRP | -0.0165
110 | RRIRERPPRLPRPRPRPHHLPRP | -0.143
111 | RRIRERPPRLPRPRPRPHHYPRP | 0.125
112 | RRIRERPPRLPRPRPRPHIAPRP | -0.099
113 | RRIRERPPRLPRPRPRPHIHPRP | -0.135
114 | RRIRERPPRLPRPRPRPHIMPRP | -0.652
115 | RRIRERPPRLPRPRPRPHIYPRP | -0.226
116 | RRIRERPPRLPRPRPRPHMDPRP | -1.21
117 | RRIRERPPRLPRPRPRPHMEPRP | -0.118
118 | RRIRERPPRLPRPRPRPHMQPRP | -0.551
119 | RRIRERPPRLPRPRPRPHNPPRP | -0.417
120 | RRIRERPPRLPRPRPRPHPRPRP | 0.278
121 | RRIRERPPRLPRPRPRPHPVPRP | -0.277
122 | RRIRERPPRLPRPRPRPHQFPRP | 0.00386
123 | RRIRERPPRLPRPRPRPHQVPRP | -0.0847
124 | RRIRERPPRLPRPRPRPHRKPRP | -0.0945
125 | RRIRERPPRLPRPRPRPHSLPRP | -0.0176

Row | Sequence | shrunken log2 fold change
126 | RRIRERPPRLPRPRPRPHVSPRP | -0.0346
127 | RRIRERPPRLPRPRPRPHWFPRP | -0.128
128 | RRIRERPPRLPRPRPRPHWNPRP | -0.843
129 | RRIRERPPRLPRPRPRPHWRPRP | 0.198
130 | RRIRERPPRLPRPRPRPHYAPRP | -0.383
131 | RRIRERPPRLPRPRPRPHYHPRP | -0.356
132 | RRIRERPPRLPRPRPRPHYKPRP | -0.901
133 | RRIRERPPRLPRPRPRPHYPPRP | -0.649
134 | RRIRERPPRLPRPRPRPIAPPRP | 0.235
135 | RRIRERPPRLPRPRPRPIAYPRP | -0.0148
136 | RRIRERPPRLPRPRPRPIEFPRP | 0.101
137 | RRIRERPPRLPRPRPRPIETPRP | -0.00369
138 | RRIRERPPRLPRPRPRPIHMPRP | -0.0835
139 | RRIRERPPRLPRPRPRPIIDPRP | -0.0746
140 | RRIRERPPRLPRPRPRPIIIPRP | -0.0562
141 | RRIRERPPRLPRPRPRPIKDPRP | -0.168
142 | RRIRERPPRLPRPRPRPIKVPRP | -0.0179
143 | RRIRERPPRLPRPRPRPIPDPRP | -0.209
144 | RRIRERPPRLPRPRPRPIPNPRP | -0.135
145 | RRIRERPPRLPRPRPRPIQDPRP | 0.876
146 | RRIRERPPRLPRPRPRPIQQPRP | -0.0452
147 | RRIRERPPRLPRPRPRPIQWPRP | 0.0338
148 | RRIRERPPRLPRPRPRPIRKPRP | -0.108
149 | RRIRERPPRLPRPRPRPIRQPRP | 0.00357
150 | RRIRERPPRLPRPRPRPISCPRP | -0.705
